Assay [1] deals with T1, hiR2-FL-I566E-T7 (human iRhom2 full length I566E, 3 x T7 tag) (human, UniProt Q6PJF5 1-856).
T1 sequence: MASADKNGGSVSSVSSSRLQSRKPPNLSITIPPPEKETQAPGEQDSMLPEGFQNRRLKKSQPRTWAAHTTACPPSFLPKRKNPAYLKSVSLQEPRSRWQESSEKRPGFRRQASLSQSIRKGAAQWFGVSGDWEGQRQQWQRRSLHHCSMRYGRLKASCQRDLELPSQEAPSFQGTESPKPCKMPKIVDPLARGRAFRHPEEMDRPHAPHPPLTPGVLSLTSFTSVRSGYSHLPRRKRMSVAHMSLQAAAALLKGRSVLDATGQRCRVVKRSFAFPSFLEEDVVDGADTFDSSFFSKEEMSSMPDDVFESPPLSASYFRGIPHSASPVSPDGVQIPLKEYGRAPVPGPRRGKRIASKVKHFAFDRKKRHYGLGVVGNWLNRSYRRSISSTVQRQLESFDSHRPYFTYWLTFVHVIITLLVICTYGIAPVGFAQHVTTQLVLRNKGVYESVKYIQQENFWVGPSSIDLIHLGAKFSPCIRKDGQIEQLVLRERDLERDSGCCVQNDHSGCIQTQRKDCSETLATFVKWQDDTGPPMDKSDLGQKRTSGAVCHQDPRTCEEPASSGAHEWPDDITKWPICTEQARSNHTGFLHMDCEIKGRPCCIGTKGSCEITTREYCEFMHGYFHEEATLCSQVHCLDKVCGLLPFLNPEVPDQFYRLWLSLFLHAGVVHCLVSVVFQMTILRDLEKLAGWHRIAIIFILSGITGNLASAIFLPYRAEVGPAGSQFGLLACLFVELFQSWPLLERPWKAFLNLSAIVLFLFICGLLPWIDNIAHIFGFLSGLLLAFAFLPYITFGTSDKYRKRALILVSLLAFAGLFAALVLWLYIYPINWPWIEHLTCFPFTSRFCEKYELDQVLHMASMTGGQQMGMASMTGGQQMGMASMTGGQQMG
Put plainly: FACS on MEF-DKO-hiR2-FL-I566E-T7 cells.

The target of assay [2] is T2, hiR1-FL-WT-T7 (human iRhom1 full length wild type C-terminally tagged with 3 consecutive copies of the T7 … (human, UniProt Q96CC6 1-855)).
T2 construct: also called human iRhom1 variant expressed by MEF-DKO-hiR1-FL-WT-T7 cells
T2 sequence: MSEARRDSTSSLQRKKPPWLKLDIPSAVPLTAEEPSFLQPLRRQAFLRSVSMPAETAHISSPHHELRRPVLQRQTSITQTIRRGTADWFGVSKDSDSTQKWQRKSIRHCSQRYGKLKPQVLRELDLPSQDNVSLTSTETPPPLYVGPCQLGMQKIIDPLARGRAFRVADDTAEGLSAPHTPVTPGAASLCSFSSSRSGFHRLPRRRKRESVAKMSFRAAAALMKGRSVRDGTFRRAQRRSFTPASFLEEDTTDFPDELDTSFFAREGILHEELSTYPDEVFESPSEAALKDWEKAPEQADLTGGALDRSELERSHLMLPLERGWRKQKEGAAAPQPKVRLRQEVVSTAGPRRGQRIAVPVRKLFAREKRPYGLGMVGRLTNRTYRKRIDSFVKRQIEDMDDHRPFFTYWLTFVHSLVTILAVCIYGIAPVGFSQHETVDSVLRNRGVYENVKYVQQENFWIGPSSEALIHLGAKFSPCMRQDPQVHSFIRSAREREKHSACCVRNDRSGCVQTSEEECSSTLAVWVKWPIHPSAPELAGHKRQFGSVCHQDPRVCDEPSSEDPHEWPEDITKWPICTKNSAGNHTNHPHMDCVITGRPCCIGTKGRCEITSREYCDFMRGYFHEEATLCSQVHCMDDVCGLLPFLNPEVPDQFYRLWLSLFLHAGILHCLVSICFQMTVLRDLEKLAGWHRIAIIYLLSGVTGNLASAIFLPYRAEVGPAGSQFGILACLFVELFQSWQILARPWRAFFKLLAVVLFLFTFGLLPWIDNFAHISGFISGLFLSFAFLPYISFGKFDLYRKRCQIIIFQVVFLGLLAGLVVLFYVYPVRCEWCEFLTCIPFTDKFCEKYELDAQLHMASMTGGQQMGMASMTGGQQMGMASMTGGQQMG
Description: FACS on MEF-DKO-hiR1-FL-WT-T7 cells.

Assay [3] addresses T3, miR2-FL-WT-FLAG (mouse iRhom2 full length wild type C-terminally tagged with the triple-FLAG epitope) (mouse, UniProt Q80WQ6 1-827).
T3 construct: also called expressed by MEF-DKO-miR2-FL-WT-FLAG cells
T3 sequence: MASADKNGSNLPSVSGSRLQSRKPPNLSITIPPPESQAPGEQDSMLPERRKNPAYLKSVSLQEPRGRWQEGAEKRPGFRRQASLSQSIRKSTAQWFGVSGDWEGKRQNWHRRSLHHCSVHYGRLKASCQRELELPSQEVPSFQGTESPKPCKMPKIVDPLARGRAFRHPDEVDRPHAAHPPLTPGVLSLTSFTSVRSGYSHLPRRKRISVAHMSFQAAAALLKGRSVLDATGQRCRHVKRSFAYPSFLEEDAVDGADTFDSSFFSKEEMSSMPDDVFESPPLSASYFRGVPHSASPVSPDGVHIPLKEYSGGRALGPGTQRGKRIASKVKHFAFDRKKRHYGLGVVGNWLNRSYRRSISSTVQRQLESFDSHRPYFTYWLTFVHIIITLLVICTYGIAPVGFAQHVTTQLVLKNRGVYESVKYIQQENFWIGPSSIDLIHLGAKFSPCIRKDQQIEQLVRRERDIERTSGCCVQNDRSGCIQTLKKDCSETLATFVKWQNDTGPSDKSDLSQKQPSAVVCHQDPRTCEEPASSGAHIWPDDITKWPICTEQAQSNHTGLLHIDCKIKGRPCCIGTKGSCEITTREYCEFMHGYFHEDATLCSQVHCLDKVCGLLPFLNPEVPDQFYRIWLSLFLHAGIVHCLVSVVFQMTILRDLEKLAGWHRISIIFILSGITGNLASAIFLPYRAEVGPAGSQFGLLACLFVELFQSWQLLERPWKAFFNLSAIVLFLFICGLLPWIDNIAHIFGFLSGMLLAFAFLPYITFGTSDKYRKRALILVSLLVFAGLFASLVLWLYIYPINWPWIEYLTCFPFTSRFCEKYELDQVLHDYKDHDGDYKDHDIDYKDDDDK
Put plainly: FACS on MEF-DKO-miR2-FL-WT-FLAG cells.

B1: antibody 5 (antibody, V domains shown)
VH: QVTLKESGPGILQPSQTLSLTCSFSGFSLSTFGMGVGWIRQPSGKGLEWLAHIWWDDEKYYNSALKSRLTISKATSKNQAFLKIANVDTADTATYYCARISNYGSNYWYFNVWGTGTTVTVSS
VL: QVVLTQSPALMSASPGEKVTMTCSAGSSVSCMYWYQQKPGSSPRVLIYDTSNLASGVPARFTGSGSGTSYSLTISRMEAEDAASYYCQQWNSYPLTFGAGTKLELK
notes: Mouse IgG, kappa light chain; also called clone #5; purified antibody 5
Consider B1, for which the binding result in assay [1] is on record as “no binding (tested: 3 µg/ml)”.

B2: antibody 3 (antibody, V domains shown)
VH: QVTLKESGPGILQPSQTLSLTCSFSGFSLTTFAMGIGWVRQPSGKGLEWLAHIWWDGEKYNNPVLKSRLTISKDTSKNQVFLRIANVDTPDTATYYCARISSIYYIIDNWGQGTSVTVSS
VL: DIVLTQSPATLSVTPGHSVSLSCRASQSISNNLHWYQKKSHESPRLLIKYVSQSISGIPSRFSGSGSGTDFTLSINSVETEDFGMYFCQQSYNWPLTFGAGTKLELK
notes: Mouse IgG, kappa light chain; also called clone #3; purified antibody 3
As for B2, the binding result in assay [2] and in assay [3] was “no binding (tested: 3 µg/ml)” in each case.

These data come from patent publication US20240174744A1 (SCIRHOM, published 2024).
